{"source": "patent US20240368285A1", "about": "(HEFEI TG IMMUNOPHARMA, published 2024)", "key": {"[1]": {"target": "T1, MICA on human tumor cells (A-375, A549, HCT-15, MDA-MB-231) (human, UniProt Q29983 24-383)", "T1 construct": "whole, on cells", "T1 sequence (looked up)": "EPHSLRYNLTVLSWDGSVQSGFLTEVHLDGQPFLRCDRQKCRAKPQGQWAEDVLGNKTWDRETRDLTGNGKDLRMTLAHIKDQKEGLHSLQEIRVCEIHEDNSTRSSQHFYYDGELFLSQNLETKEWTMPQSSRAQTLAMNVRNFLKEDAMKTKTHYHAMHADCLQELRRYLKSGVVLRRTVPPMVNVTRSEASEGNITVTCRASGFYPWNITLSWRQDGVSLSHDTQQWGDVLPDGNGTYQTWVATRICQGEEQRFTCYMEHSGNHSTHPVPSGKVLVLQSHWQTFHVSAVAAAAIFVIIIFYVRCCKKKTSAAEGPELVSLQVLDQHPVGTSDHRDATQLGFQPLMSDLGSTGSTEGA", "assay": "flow cytometry on HCT-15 cells, Alexa-647 goat anti-human secondary, average fluorescence intensity", "procedure": "(1) Tumor cells were diluted to a density of 2×10⁶/mL with PBS and then added into a 1.5 ml EP tube in a volume of 100 l/tube. 10 l/tube of goat serum was added into the EP tube; and blocking was conducted at 4° C. for 30 min. Antibody h5A1 (having a heavy chain sequence as set forth in SEQ ID NO: 11 and a light chain sequence as set forth in SEQ ID NO: 12), antibody h5A1002 (having a heavy chain sequence as set forth in SEQ ID NO: 13 and a light chain sequence as set forth in SEQ ID NO: 14), and control IgG1 (purchased from Biointron) were gradient-diluted (at a highest working concentration of 50 μg/ml, 10 gradients, diluted by 3 times for each gradient) and added. The tube was incubated at 4° C. for 30 min. 1 mL of PBS was added into the EP tube, and centrifugation was conducted 4° C. at a rate of 3,500 rpm for 5 min. The supernatant was removed. The EP tube was washed once with the PBS. The supernatant was removed after centrifugation. The cells were resuspended with PBS in a volume of 100 l/tube. An Alexa-647 labeled goat anti-human secondary antibody (purchased from Jackson lab) was added into the tube in a volume of 1 l/tube; and the plate was incubated in the dark at 4° C. for 30 min. The tube was washed twice with PBS, and the supernatant was removed after centrifugation. […]"}, "MICB001α3-Fc": {"target": "T2, MICB001α3-Fc", "T2 construct": "also called MICB*001-Fc; domain α3 of MICB-001 Fc fusion protein", "T2 sequence (chain, as listed by the source limits assumed)": "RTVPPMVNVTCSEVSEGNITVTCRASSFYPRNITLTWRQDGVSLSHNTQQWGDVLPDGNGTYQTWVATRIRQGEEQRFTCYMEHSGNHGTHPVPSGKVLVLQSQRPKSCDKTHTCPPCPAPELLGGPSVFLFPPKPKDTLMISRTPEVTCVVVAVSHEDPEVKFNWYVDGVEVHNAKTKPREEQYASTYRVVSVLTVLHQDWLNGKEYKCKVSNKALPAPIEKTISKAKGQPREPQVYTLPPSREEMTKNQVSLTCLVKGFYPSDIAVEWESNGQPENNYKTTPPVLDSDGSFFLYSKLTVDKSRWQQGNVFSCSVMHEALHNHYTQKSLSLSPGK", "assay": "ELISA on coated MICB*001 α3-Fc (1 µg/ml), HRP anti-human Fab secondary, OD450", "procedure": "After the antibodies were added, signal intensity was used for judging the binding characteristics of the antibodies and MICA and MICB.\nThe fusion proteins (produced in the Applicant's laboratory; an amino acid sequence of MICA002α3-Fc is as set forth in SEQ ID NO: 22; an amino acid sequence of MICA005α3-Fc is as set forth in SEQ ID NO: 24; an amino acid sequence of MICA008α3-Fc is as set forth in SEQ ID NO: 25; an amino acid sequence of MICA004α3-Fc is as set forth in SEQ ID NO: 23; an amino acid sequence of MICB001α3-Fc is as set forth in SEQ ID NO: 26; and an amino acid sequence of MICB005α3-Fc is as set forth in SEQ ID NO: 27) were diluted to a concentration of 1 μg/ml with PBS and then added into a 96-well plate in a volume of 100 μl/well. The plate was placed at 4° C. overnight. The PBS in the 96-well plate was removed by sucking. After the plate was washed with PBST (that is, PBS having a pH value of 7.2 included 0.1 volume % of Tween 20) for 6 times, PBS containing 10% of BSA was added in a volume of 200 μl/well. The plate was incubated at 37° C. for 2 hours for blocking. The blocking solution was removed. […]"}, "[2]": {"target": "T3, MICA protein (SPR analyte) (human, UniProt Q29983 24-308, limits assumed)", "T3 construct": "also called major histocompatibility complex class I chain related polypeptide A", "T3 sequence": "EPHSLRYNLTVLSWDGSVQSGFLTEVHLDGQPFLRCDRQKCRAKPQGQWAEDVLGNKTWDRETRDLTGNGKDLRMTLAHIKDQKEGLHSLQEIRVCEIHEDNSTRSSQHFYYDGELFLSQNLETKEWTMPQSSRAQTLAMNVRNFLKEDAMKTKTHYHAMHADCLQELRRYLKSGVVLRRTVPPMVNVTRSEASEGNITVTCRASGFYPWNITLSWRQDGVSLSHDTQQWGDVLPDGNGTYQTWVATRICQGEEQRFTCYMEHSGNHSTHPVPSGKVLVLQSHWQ", "assay": "SPR, Biacore 8K", "procedure": "In a Biacore 8K (Cytiva) system, the antibody was diluted to a concentration of 10 µg/mL with running buffer (HBS-EP), and the antibody was conjugated onto a protein A (Cytiva, 29127556) chip at a flow rate of […].\nKinetic and affinity data of binding of the maternal antibody h5A1 and the affinity maturation antibody h5A1002 and MICA were detected."}, "MICA008α3-Fc": {"target": "T4, MICA008α3-Fc (human)", "T4 construct": "also called MICA*008-Fc; domain α3 of MICA-008 Fc fusion protein", "T4 sequence (chain, as listed by the source limits assumed)": "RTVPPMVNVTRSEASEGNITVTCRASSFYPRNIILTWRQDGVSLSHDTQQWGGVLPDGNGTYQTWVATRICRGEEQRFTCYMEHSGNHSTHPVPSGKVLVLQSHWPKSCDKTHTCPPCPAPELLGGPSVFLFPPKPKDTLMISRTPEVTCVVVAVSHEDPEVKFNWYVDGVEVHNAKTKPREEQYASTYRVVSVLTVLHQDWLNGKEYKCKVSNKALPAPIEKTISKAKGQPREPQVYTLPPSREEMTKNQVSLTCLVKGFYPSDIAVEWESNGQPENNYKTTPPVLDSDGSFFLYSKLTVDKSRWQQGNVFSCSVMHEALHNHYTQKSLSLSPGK", "assay": "ELISA on coated MICA*008 α3-Fc (1 µg/ml), HRP anti-human Fab secondary, OD450"}}, "data": [{"binder": "affinity maturation antibody h5A1002 (antibody, V domains shown, Human IgG1, kappa; also called h5A1002-hIgG1) VH: QVQLQESGPGLVKPSETLSLTCTVSGFSLTTYGGHWIRQPPGKGLEWIGMIWTDGWTDYNAAFISRVTISVDTSKNQFSLKLSSVTAADTAVYYCARKGHGYYYAMDYWGQGTLVTVSS VL: EIVLTQSPGTLSLSPGERATLSCTASSSVSSSYLHWYQQKPGQAPRLLIYSTSNLISGIPDRFSGSGSGTDFTLTISRLEPEDFAVYYCHQYHRSPFTFGQGTKLEIKR", "values": [{"measurement": "EC50 (read off the curve)", "setting": "[1]", "result": "~1", "unit": "µg/mL"}, {"measurement": "EC50 (read off the curve)", "setting": "MICB001α3-Fc", "result": "~50", "unit": "ng/mL"}, {"measurement": "fold increase of affinity against maternal antibody h5A1", "setting": "[2]", "result": "~39", "unit": "times"}, {"measurement": "EC50 (read off the curve)", "setting": "MICA008α3-Fc", "result": "~0.06", "unit": "µg/mL"}]}]}
